Data: US7521047
Each block holds one substance with its values, some of them ahead of it.

Experiments:
[1] = target: HLA-DR on GRANTA-519 cells (human); assay: flow cytometry, GRANTA-519 cells stained with FITC-labelled L243 (HLA-DR expression)
[2] = target: HLA-DR on L1236 cells (human); assay: flow cytometry, L1236 cells stained with FITC-labelled L243 (HLA-DR expression)
[3] = target: HLA-DR on RPMI-8226 cells (human); assay: flow cytometry, RPMI-8226 cells stained with FITC-labelled L243 (HLA-DR expression)
[4] = target: HLA-DR on MHH-PREB-1 cells (human); assay: flow cytometry, MHH-PREB-1 cells stained with FITC-labelled L243 (HLA-DR expression)
[5] = target: HLA-DR on L-363 cells (human); assay: flow cytometry, L-363 cells stained with FITC-labelled L243 (HLA-DR expression)
[6] = target: HLA-DR on KARPAS-299 cells (human); assay: flow cytometry, KARPAS-299 cells stained with FITC-labelled L243 (HLA-DR expression)
[7] = target: HLA-DR on RAJI cells (human); assay: flow cytometry, RAJI cells stained with FITC-labelled L243 (HLA-DR expression)
[8] = target: HLA-DR on DOHH-2 cells (human); assay: flow cytometry, DOHH-2 cells stained with FITC-labelled L243 (HLA-DR expression)
[9] = target: HLA-DR on LP-1 cells (human); assay: flow cytometry, LP-1 cells stained with FITC-labelled L243 (HLA-DR expression)
[10] = target: HLA-DR on HD-MY-Z cells (human); assay: flow cytometry, HD-MY-Z cells stained with FITC-labelled L243 (HLA-DR expression)
[11] = target: HLA-DR on KM-H2 cells (human); assay: flow cytometry, KM-H2 cells stained with FITC-labelled L243 (HLA-DR expression)
[12] = target: HLA-DR on HC-1 cells (human); assay: flow cytometry, HC-1 cells stained with FITC-labelled L243 (HLA-DR expression)
[13] = target: HLA-DR on MN-60 cells (human); assay: flow cytometry, MN-60 cells stained with FITC-labelled L243 (HLA-DR expression)
[14] = target: HLA-DR on LG-2 cells (human); assay: flow cytometry, LG-2 cells stained with FITC-labelled L243 (HLA-DR expression)
[15] = target: HLA-DR on L-428 cells (human); assay: flow cytometry, L-428 cells stained with FITC-labelled L243 (HLA-DR expression)
[16] = target: HLA-DR on NALM-1 cells (human); assay: flow cytometry, NALM-1 cells stained with FITC-labelled L243 (HLA-DR expression)
[17] = target: HLA-DR on MHH-CALL-4 cells (human); assay: flow cytometry, MHH-CALL-4 cells stained with FITC-labelled L243 (HLA-DR expression)
[18] = target: HLA-DR on BONNA-12 cells (human); assay: flow cytometry, BONNA-12 cells stained with FITC-labelled L243 (HLA-DR expression)
[19] = target: HLA-DR on EOL-1 cells (human); assay: flow cytometry, EOL-1 cells stained with FITC-labelled L243 (HLA-DR expression)
[20] = target: HLA-DR on BJAB cells (human); assay: flow cytometry, BJAB cells stained with FITC-labelled L243 (HLA-DR expression)
[21] = target: HLA-DR (allele and form not stated); assay: not stated (Z. A. Nagy, unpublished)
[22] = target: HLA-DR on ARH-77 cells (human); assay: flow cytometry, ARH-77 cells stained with FITC-labelled L243 (HLA-DR expression)
[23] = target: HLA-DR on KARPAS-422 cells (human); assay: flow cytometry, KARPAS-422 cells stained with FITC-labelled L243 (HLA-DR expression)
[24] = target: HLA-DR on EOL-1 cells (human); assay: cell-based or functional assay
[25] = target: HLA-DR on HDLM-2 cells (human); assay: cell-based or functional assay
[26] = target: HLA-DR on RPMI-8226 cells (human); assay: cell-based or functional assay
[27] = target: HLA-DR on HC-1 cells (human); assay: cell-based or functional assay
[28] = target: HLA-DR on KARPAS-299 cells (human); assay: cell-based or functional assay
[29] = target: HLA-DR on RAJI cells (human); assay: cell-based or functional assay
[30] = target: HLA-DR on BJAB cells (human); assay: cell-based or functional assay
[31] = target: HLA-DR on L-363 cells (human); assay: cell-based or functional assay
[32] = target: HLA-DR on MHH-CALL-4 cells (human); assay: cell-based or functional assay
[33] = target: HLA-DR on L1236 cells (human); assay: cell-based or functional assay
[34] = target: HLA-DR on MN-60 cells (human); assay: cell-based or functional assay
[35] = target: HLA-DR on NALM-1 cells (human); assay: cell-based or functional assay
[36] = target: HLA-DR on MHH-CALL-2 cells (human); assay: cell-based or functional assay
[37] = target: HLA-DR on KM-H2 cells (human); assay: cell-based or functional assay
[38] = target: HLA-DR on BONNA-12 cells (human); assay: cell-based or functional assay
[39] = target: HLA-DR on HD-MY-Z cells (human); assay: cell-based or functional assay
[40] = target: HLA-DR on ARH-77 cells (human); assay: cell-based or functional assay
[41] = target: HLA-DR on LG-2 cells (human); assay: cell-based or functional assay
[42] = target: HLA-DR on LP-1 cells (human); assay: cell-based or functional assay
[43] = target: HLA-DR on SR-786 cells (human); assay: cell-based or functional assay
[44] = target: HLA-DR on GRANTA-519 cells (human); assay: cell-based or functional assay
[45] = target: HLA-DR on MHH-PREB-1 cells (human); assay: cell-based or functional assay
[46] = target: HLA-DR on KARPAS-422 cells (human); assay: cell-based or functional assay
[47] = target: HLA-DR on DOHH-2 cells (human); assay: cell-based or functional assay
[48] = target: HLA-DR on L-428 cells (human); assay: cell-based or functional assay
[49] = target: HLA-DR on HDLM-2 cells (human); assay: flow cytometry, HDLM-2 cells stained with FITC-labelled L243 (HLA-DR expression)
[50] = target: HLA-DR on SR-786 cells (human); assay: flow cytometry, SR-786 cells stained with FITC-labelled L243 (HLA-DR expression)
[51] = target: chimeric 0401-IE class II molecule on cells of transgenic mice (human/murine chimera); assay: cell-based or functional assay
[52] = target: HLA-DR on chronic lymphoid leukemia (CLL) cells of patients (human); assay: cell-based or functional assay

L243 (antibody), sequence (VH): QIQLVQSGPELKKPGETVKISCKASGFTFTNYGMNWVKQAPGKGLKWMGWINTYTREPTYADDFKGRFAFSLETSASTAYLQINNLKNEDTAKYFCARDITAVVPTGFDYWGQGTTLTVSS
L243 (antibody), sequence (VL): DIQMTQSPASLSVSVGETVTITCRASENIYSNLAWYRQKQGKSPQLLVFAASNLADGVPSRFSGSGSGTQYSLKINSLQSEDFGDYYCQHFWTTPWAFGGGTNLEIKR
MS-GPC-8 IgG4 (antibody), sequence (VH): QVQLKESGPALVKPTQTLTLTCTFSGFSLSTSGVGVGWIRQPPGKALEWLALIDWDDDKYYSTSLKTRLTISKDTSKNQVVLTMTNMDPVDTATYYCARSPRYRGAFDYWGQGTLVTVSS
MS-GPC-8 IgG4 (antibody), sequence (VL): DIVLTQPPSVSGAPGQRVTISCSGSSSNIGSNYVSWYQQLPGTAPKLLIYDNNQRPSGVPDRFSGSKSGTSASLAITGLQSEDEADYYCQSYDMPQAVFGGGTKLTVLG

MFL (mean fluorescence intensity) [1]: 1460 MFL | MFL (mean fluorescence intensity) [2]: 41 MFL | MFL (mean fluorescence intensity) [3]: 19 MFL | MFL (mean fluorescence intensity) [4]: 175 MFL | MFL (mean fluorescence intensity) [5]: 49 MFL | MFL (mean fluorescence intensity) [6]: 798 MFL | MFL (mean fluorescence intensity) [7]: 617 MFL | MFL (mean fluorescence intensity) [8]: 444 MFL | MFL (mean fluorescence intensity) [9]: 315 MFL | MFL (mean fluorescence intensity) [10]: 79 MFL | MFL (mean fluorescence intensity) [11]: 619 MFL | MFL (mean fluorescence intensity) [12]: 372 MFL | MFL (mean fluorescence intensity) [13]: 1120 MFL | MFL (mean fluorescence intensity) [14]: 458 MFL | MFL (mean fluorescence intensity) [15]: 244 MFL | MFL (mean fluorescence intensity) [16]: 1080 MFL | MFL (mean fluorescence intensity) [17]: 348 MFL | MFL (mean fluorescence intensity) [18]: 2430 MFL | MFL (mean fluorescence intensity) [19]: 536 MFL | MFL (mean fluorescence intensity) [20]: 338 MFL | Kd [21]: 10 nM | MFL (mean fluorescence intensity) [22]: 301 MFL | MFL (mean fluorescence intensity) [23]: 211 MFL | MFL (mean fluorescence intensity) [49]: 326 MFL | MFL (mean fluorescence intensity) [50]: 142 MFL
Substance: L243 (antibody)
% Killing by mAb, 200 nM, 4 h [24]: 22% | % Killing by mAb, 200 nM, 4 h [25]: 77% | % Killing by mAb, 200 nM, 4 h [26]: 6% | % Killing by mAb, 200 nM, 4 h [27]: 88% | % Killing by mAb, 200 nM, 4 h [28]: 78% | % Killing by mAb, 200 nM, 4 h [29]: 69% | % Killing by mAb, 200 nM, 4 h [30]: 53% | % Killing by mAb, 200 nM, 4 h [31]: 6% | % Killing by mAb, 200 nM, 4 h [32]: 35% | % Killing by mAb, 200 nM, 4 h [33]: 52% | % Killing by mAb, 200 nM, 4 h [34]: 46% | % Killing by mAb, 200 nM, 4 h [35]: 44% | % Killing by mAb, 200 nM, 4 h [36]: 5% | % Killing by mAb, 200 nM, 4 h [37]: 81% | % Killing by mAb, 200 nM, 4 h [38]: 92% | % Killing by mAb, 200 nM, 4 h [39]: 35% | % Killing by mAb, 200 nM, 4 h [40]: 88% | % Killing by mAb, 200 nM, 4 h [41]: 79% | % Killing by mAb, 200 nM, 4 h [42]: 12% | % Killing by mAb, 200 nM, 4 h [43]: 3% | % Killing by mAb, 200 nM, 4 h [44]: 83% | % Killing by mAb, 200 nM, 4 h [45]: 3% | % Killing by mAb, 200 nM, 4 h [46]: 25% | % Killing by mAb, 200 nM, 4 h [47]: 29% | % Killing by mAb, 200 nM, 4 h [48]: 82%

IC50 of inhibition of IL-2 secretion from T-Hyb 1 cells [51]: 11 nM | Maximum inhibition(%) of IL-2 secretion [51]: 100%
Substance: MS-GPC-8 IgG4 (antibody)
% Killing by mAb, 50 nM, 4 h [24]: 36% | % Killing by mAb, 50 nM, 4 h [26]: 14% | % Killing by mAb, 50 nM, 4 h [30]: 49% | % Killing by mAb, 50 nM, 4 h [31]: 26% | % Killing by mAb, 50 nM, 4 h [32]: 43% | viable CLL cells after 24 hours, 100 nM IgG (told for all three human IgGs) [52]: 33% | viable activated CLL cells after 4 hours, 100 nM IgG (average for all patient samples and antibodies) [52]: 24% | % Killing by mAb, 50 nM, 4 h [33]: 44% | % Killing by mAb, 50 nM, 4 h [34]: 71% | % Killing by mAb, 50 nM, 4 h [37]: 75% | % Killing by mAb, 50 nM, 4 h [39]: 49% | % Killing by mAb, 50 nM, 4 h [42]: 61% | % Killing by mAb, 50 nM, 4 h [43]: 1% | % Killing by mAb, 50 nM, 4 h [44]: 76% | % Killing by mAb, 50 nM, 4 h [45]: 2% | % Killing by mAb, 50 nM, 4 h [46]: 51% | % Killing by mAb, 50 nM, 4 h [47]: 58%
